From US20230025572A1 (published 2023)

B1: TCR 1705 (TCR, V domains shown)
Valpha: QKEVEQDPGPLSVPEGAIVSLNCTYSNSAFQYFMWYRQYSRKGPELLMYTYSSGNKEDGRFTAQVDKSSKYISLFIRDSQPSDSATYLCAMSDTGNQFYFGTGTSLTVIP
Vbeta: AAGVIQSPRHLIKEKRETATLKCYPIPRHDTVYWYQQGPGQDPQFLISFYEKMQSDKGSIPDRFSAQQFSDYHSELNMSSLELGDSALYFCASSFRGGGANVLTFGAGSRLTVL
B2: TCR 1405 (TCR, V domains shown)
Valpha: GENVEQHPSTLSVQEGDSAVIKCTYSDSASNYFPWYKQELGKGPQLIIDIRSNVGEKKDQRIAVTLNKTAKHFSLHITETQPEDSAVYFCAARPNSGNTPLVFGKGTRLSVIA
Vbeta: SAVISQKPSRDICQRGTSLTIQCQVDSQVTMMFWYRQQPGQSLTLIATANQGSEATYESGFVIDKFPISRPNLTFSTLTVSNMSPEDSSIYLCSVEQDTNTGELFFGEGSRLTVL
B3: TCR 1367 (TCR, V domains shown)
Valpha: GEDVEQSLFLSVREGDSSVINCTYTDSSSTYLYWYKQEPGAGLQLLTYIFSNMDMKQDQRLTVLLNKKDKHLSLRIADTQTGDSAIYFCAESIGSNSGYALNFGKGTSLLVTP
Vbeta: DVKVTQSSRYLVKRTGEKVFLECVQDMDHENMFWYRQDPGLGLRLIYFSYDVKMKEKGDIPEGYSVSREKKERFSLILESASTNQTSMYLCASRGLAGYEQYFGPGTRLTVT

Assays:
[1] = target: T1, MAGE-B16 peptide on HLA-A*02:01 (human); test: cytokine release
T1 peptide: KVLEFVAKV
Description: (§1) FIG. 18 T2 cells were loaded with 10-5 mol/l MAGE-A1278 (SEQ ID NO: 11) or the 2 most similar epitopes in the human proteome (MAGE-B16 and MAGE-B5, SEQ ID NOs: 54 and 55, respectively) differing in only 2 amino acids from MAGE-A1278 and co-cultured with TCR modified T cells. Functional response was assessed based on IFNγ production.

[2] = target: T2, MAGE-B5 peptide on HLA-A*02:01 (human); test: cytokine release
T2 peptide: KVLEYLAKV
Description: as §1

[3] = target: T3, MAGE-A1 peptide on HLA-A*02:01 (human); test: multimer staining
T3 peptide: KVLEYVIKV

Binder | binding result [1] | binding result [2] | binding result [3]
B1 | no recognition | no recognition | recognises
B2 | no recognition | no recognition | recognises
B3 | no recognition | no recognition | recognises
